Results from article PMC2793518, “Fiber Mediated Receptor Masking in Non-Infected Bystander Cells Restricts Adenovirus Cell Killing Effect but Promotes Adenovirus Host Co-Existence” (PLoS ONE, 2009).

Molecular target: T1, CAR on A549 cells (human (endogenous in A549), UniProt P78310 20-365)
T1 sequence: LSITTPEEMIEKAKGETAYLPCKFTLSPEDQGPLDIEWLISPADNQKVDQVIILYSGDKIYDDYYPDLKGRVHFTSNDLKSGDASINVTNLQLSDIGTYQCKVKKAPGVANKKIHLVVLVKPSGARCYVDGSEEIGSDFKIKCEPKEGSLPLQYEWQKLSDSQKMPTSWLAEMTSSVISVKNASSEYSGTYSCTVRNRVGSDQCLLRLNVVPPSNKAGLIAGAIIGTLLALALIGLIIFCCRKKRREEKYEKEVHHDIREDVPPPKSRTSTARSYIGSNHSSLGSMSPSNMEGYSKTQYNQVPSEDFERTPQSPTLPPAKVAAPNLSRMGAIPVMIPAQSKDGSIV
Assay: cell-based or functional assay

B1: Ad5 fiber (free trimeric fiber molecules released from Ad5-CRAD or WT Ad5 infected cells) (natural protein)
chain: MKRARPSEDTFNPVYPYDTETGPPTVPFLTPPFVSPNGFQESPPGVLSLRLSEPLVTSNGMLALKMGNGLSLDEAGNLTSQNVTTVSPPLKKTKSNINLEISAPLTVTSEALTVAAAAPLMVAGNTLTMQSQAPLTVHDSKLSIATQGPLTVSEGKLALQTSGPLTTTDSSTLTITASPPLTTATGSLGIDLKEPIYTQNGKLGLKYGAPLHVTDDLNTLTVATGPGVTINNTSLQTKVTGALGFDSQGNMQLNVAGGLRIDSQNRRLILDVSYPFDAQNQLNLRLGQGPLFINSAHNLDINYNKGLYLFTASNNSKKLEVNLSTAKGLMFDATAIAINAGDGLEFGSPNAPNTNPLKTKIGHGLEFDSNKAMVPKLGTGLSFDSTGAITVGNKNNDKLTLWTTPAPSPNCRLNAEKDAKLTLVLTKCGSQILATVSVLAVKGSLAPISGTVQSAHLIIRFDENGVLLNNSFLDPEYWNFRNGDLTEGTAYTNAVGFMPNLSAYPKSHGKTAKSNIVSQVYLNGDKTKPVTLTITLNGTQETGDTTPSAYSMSFSWDWSGHNYINEIFATSSYTFSYIAQE
percent GFP+ cells 24 hr after super-infection with Ad5-PGK-GFP (MOI 10) of A549 cultures infected 6 days before with Ad5-CRAD (MOI 1.0), relative to cultures without prior Ad5-CRAD infection: 60 % of control
